From patent US20100098706A1

Molecular target: human CD16 receptor (FcgammaRIIIa) (human) (UniProt P08637)
Assay: flow cytometry on NK cells; competition with 3G8-PE; antibody at 50 µg/ml

human CD16 receptor (FcgammaRIIIa) (human), sequence (P08637 17-254): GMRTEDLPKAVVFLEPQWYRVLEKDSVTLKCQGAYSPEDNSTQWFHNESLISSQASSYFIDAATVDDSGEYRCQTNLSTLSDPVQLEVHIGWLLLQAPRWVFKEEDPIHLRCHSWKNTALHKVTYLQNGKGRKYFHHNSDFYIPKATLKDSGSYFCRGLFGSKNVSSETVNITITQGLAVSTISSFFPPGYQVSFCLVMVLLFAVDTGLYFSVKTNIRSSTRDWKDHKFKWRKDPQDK

- binding percentage (100% = total inhibition of 3G8 binding): 18.5%
Substance: Rituxan® (antibody)
